# In US20240287177A1 (Merck KGaA, published 2024):
# T1: recombinant human NKp30 extracellular domain, his-tagged (human, UniProt O14931 19-135)
# T1 construct: BLI used human NKp30 bought from Abcam (his-tagged ECD); also called rh NKp30 ECD; human NKp30 (Abcam); not shown: his tag
# T1 sequence: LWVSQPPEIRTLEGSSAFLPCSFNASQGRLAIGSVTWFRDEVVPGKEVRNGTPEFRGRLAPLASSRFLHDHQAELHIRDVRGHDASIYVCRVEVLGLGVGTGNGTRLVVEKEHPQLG
# Columns and labels:
# [1] = biological target: NKp30 on human NK cells (human) (UniProt O14931); assay: cell-based or functional assay
# [2] = biological target: FcγRIIIa on human NK cells (human) (UniProt P08637); assay: cell-based or functional assay
# FcγRIIIa on human NK cells (human), sequence (P08637 17-254): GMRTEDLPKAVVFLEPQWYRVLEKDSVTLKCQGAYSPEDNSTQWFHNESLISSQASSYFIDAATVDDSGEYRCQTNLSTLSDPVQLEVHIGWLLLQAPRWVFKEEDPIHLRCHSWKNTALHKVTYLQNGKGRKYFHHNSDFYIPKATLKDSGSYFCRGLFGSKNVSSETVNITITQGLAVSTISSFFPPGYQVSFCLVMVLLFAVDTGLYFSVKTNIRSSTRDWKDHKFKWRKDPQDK
# [3] = biological target: recombinant human NKp30 extracellular domain, his-tagged (human) (UniProt O14931); assay: BLI, SEEDbody on anti-human Fc sensors, soluble NKp30, 1:1 fit
# [4] = biological target: T1, recombinant human NKp30 extracellular …; assay: BLI as in Example 1
# [5] = biological target: T1, recombinant human NKp30 extracellular …; assay: BLI as in Example 1, maximum binding capacity
binder,measurement,setting,value
"VHH1 SEEDbody eff- (bispecific antibody, part only; not given: silenced SEED Fc and cetuximab Fab, V domains shown, not shown: another chain or arm of the molecule; a dimerising Fc or GST; small tags and cut ends) VHH: DVQLQESGGGLVQPGGSLRLSCATSGFTLDDYTIGWVRQAPGKEHEGVSCFSPSDGTTYYADSVKGRFTFSRDNAKNTVYLQMNSLKPEDTAVYYCAASFADGSSWCYDYWGQGTQVTVSS","EC50 (nM), MNC based killing of A431 cells, E:T 80:1",[1],0.00171 nM
same,"EC50, lysis of A431 cells by isolated NK cells, E:T 10:1",[1],2.2 pM
same,"Max. IFNγ release (pg/ml), NK cells with A431 cells",[1],753 pg/mL
same,"Max. Killing (% Lysis), MNC based killing of A431 cells, E:T 80:1",[1],53 % Lysis
same,"Max. TNFα release (pg/ml), NK cells with A431 cells",[1],104 pg/mL
same,"EC50, lysis of A431 cells by isolated NK cells, E:T 10:1",[2],3.2 pM
same,Kd,[3],270 pM
same,koff,[3],0.000222 s⁻¹
same,kon,[3],819000 M⁻¹ s⁻¹
"VHH1.9 (humanized) (VHH, expressed and measured by BLI 'as described in Experiment 1' (there: bispecific SEEDbody on anti-human Fc sensors)) VHH: EVQLVESGGGVVQPGGSLRLSCAASGFTLDDYTIGWVRQAPGKGLEGVSCFSPSDGTTYYADSVKGRFTISRDNAKNTLYLQMNSLRAEDTAVYYCAASFADGSSWCYDYWGQGTLVTVSS",Kd,[4],1060 pM
same,Emax (nm),[5],0.1 nm
"VHH1.7 (humanized) (VHH, expressed and measured by BLI 'as described in Experiment 1' (there: bispecific SEEDbody on anti-human Fc sensors)) VHH: EVQLVESGGGVVQPGGSLRLSCAASGFTLDDYTIGWVRQAPGKGLEGVSCFSPSDGTTYYADSVKGRFTFSRDNAKNTLYLQMNSLRAEDTAVYYCAASFADGSSWCYDYWGQGTLVTVSS",Kd,[4],533 pM
same,Emax (nm),[5],0.09 nm
"VHH1.6 (humanized) (VHH, expressed and measured by BLI 'as described in Experiment 1' (there: bispecific SEEDbody on anti-human Fc sensors)) VHH: EVQLVESGGGVVQPGGSLRLSCATSGFTLDDYTIGWVRQAPGKGLEGVSCFSPSDGTTYYADSVKGRFTFSRDNAKNTLYLQMNSLRAEDTAVYYCAASFADGSSWCYDYWGQGTLVTVSS",Kd,[4],797 pM
same,Emax (nm),[5],0.14 nm
"VHH1.8 (humanized) (VHH, expressed and measured by BLI 'as described in Experiment 1' (there: bispecific SEEDbody on anti-human Fc sensors)) VHH: EVQLVESGGGVVQPGGSLRLSCATSGFTLDDYTIGWVRQAPGKGLEGVSCFSPSDGTTYYADSVKGRFTISRDNAKNTLYLQMNSLRAEDTAVYYCAASFADGSSWCYDYWGQGTLVTVSS",Kd,[4],1130 pM
same,Emax (nm),[5],0.1 nm
"VHH1.5 (humanized) (VHH, expressed and measured by BLI 'as described in Experiment 1' (there: bispecific SEEDbody on anti-human Fc sensors)) VHH: EVQLVESGGGVVQPGGSLRLSCAASGFTLDDYTIGWVRQAPGKGLEGVSCFSPSDGTTYYADSVKGRFTISRDNAKNTVYLQMNSLRAEDTAVYYCAASFADGSSWCYDYWGQGTLVTVSS",Kd,[4],888 pM
same,Emax (nm),[5],0.1 nm
"VHH2 SEEDbody eff- (bispecific antibody, part only; not given: silenced SEED Fc and cetuximab Fab, V domains shown, not shown: another chain or arm of the molecule; a dimerising Fc or GST; small tags and cut ends) VHH: DVQLQESGGGLVQAGGSLRLSCAVSGQTWTNYHIGWFRQAPGKARESVASIEWGGRGTYATDSVKGRFTISRDNAKNTVYLQMNSLKPEDTAVYYCAAQSSSRSPLESNYDYWGQGTQVTVSS","EC50 (nM), MNC based killing of A431 cells, E:T 80:1",[1],0.0132 nM
same,"EC50, lysis of A431 cells by isolated NK cells, E:T 10:1",[1],34.4 pM
same,"Max. IFNγ release (pg/ml), NK cells with A431 cells",[1],580 pg/mL
same,"Max. Killing (% Lysis), MNC based killing of A431 cells, E:T 80:1",[1],51 % Lysis
same,"Max. TNFα release (pg/ml), NK cells with A431 cells",[1],118 pg/mL
same,"EC50, lysis of A431 cells by isolated NK cells, E:T 10:1",[2],3.9 pM
same,"fold increase of killing potency, eff+ against eff-",[2],8.8 fold
same,Kd,[3],3270 pM
same,koff,[3],0.000646 s⁻¹
same,kon,[3],198000 M⁻¹ s⁻¹
